Laboratory results reported in patent publication US12539335B2, “Tricyclic polypeptide conjugated drug and use thereof” (CONJUSTAR (ZHUHAI) BIOLOGICS CO., LTD., priority 2021, dated 2026).
Counter-ions that a name gives are not always drawn. Starred links: 1 amine or outer side, 2 acyl side, 3 side chain; linkers in the order of their positions; H or OH if unused. Positions of bridges follow the written chain, without caps; N, C: chain ends. Non-standard residues stand in square brackets, D forms with d. Residues, ends and D or L forms follow the SMILES beside them. Chains are numbered I, II in the order given. *: point of attachment. TATA = O=C(CC[*:1])N1CN(C(=O)CC[*:2])CN(C(=O)CC[*:3])C1; Dolaproine = CO[C@@H]([C@@H]1CCCN1)[C@@H](C)C(=O)O; Dil = CC[C@H](C)[C@H](NC)[C@@H](CC(=O)O)OC; 1Nal = N[C@@H](Cc1cccc2ccccc12)C(=O)O; X2 = O=C(CCCC(=O)[*:2])NCCC(=O)[*:1]; PABC = O=C(OCc1ccc(N[*:1])cc1)[*:2]; X1 = C[C@@H](N*)[C@@H](O)c1ccccc1; Hyp = O=C(O)[C@@H]1C[C@@H](O)CN1; hArg = N=C(N)NCCCC[C@H](N)C(=O)O; Cit = NC(=O)NCCC[C@H](N)C(=O)O; Pen = CC(C)(S)[C@H](N)C(=O)O; NMeV = CN[C@H](C(=O)O)C(C)C; Sar = CNCC(=O)O

Assays:
[1] = Pharmacokinetic analysis in Cynomolgus macaque plasma; assay type: in vivo; conditions: cynomolgus monkey, Cynomolgus macaques, single IV 1 mg/kg, plasma
Method: Test Example 6: Pharmacokinetic Analysis in Cynomolgus Macaque Plasma
To test the pharmacokinetics of the compounds of the present invention in Cynomolgus macaques.
The pharmacokinetic characteristics of the compound after intravenous injection were tested according to a standard protocol in Cynomolgus macaques. The compound to be tested was formulated into a clear solution using 25 mM L-histidine (pH=7) in 10% sucrose as a vehicle. Cynomolgus macaques were given a single intravenous injection of 1 mg/kg of the compound to be tested. Whole blood was collected at time points of 0.083, 0.25, 0.5, 1, 2, 4, 8, and 24 hours after administration to get plasma. The concentration of the compound to be tested and the concentration of its potential metabolite MMAE were analyzed by the LC-MS/MS method, and the pharmacokinetic parameters were calculated by Phoenix WinNonlin software.

[2] = Metabolic stability in hepatocytes, humans; assay type: in vitro ADME; conditions: human, hepatocytes (cryopreserved, suspension), 0.5×10^6 cells/mL
Method: Test Example 7: Metabolic Stability of the Compounds of the Present Invention in Hepatocytes from Mice, Rats, Cynomolgus Macaques, and Humans
To investigate the metabolic stability of the compounds of the present invention in hepatocytes from mice, rats, Cynomolgus macaques, and humans.
Incubations were performed in 96-well plates using an external extraction method. Several 96-well sample precipitation plates, designated T0, T15, T30, T60, T90, TO-MC, T90-MC, and blank matrix, were prepared, respectively. The recovery culture medium and incubation culture medium were removed in advance and placed in a 37° C. water bath for preheating. […]
At the end of the incubation at the corresponding time point, the incubation plates were removed, from which 25 μL of a compound mixture with the cells and a control compound mixture with the cells were removed and added to sample plates containing 125 μL of stop buffer, respectively. […] All samples were mixed uniformly and then analyzed by the LC-MS/MS method.
The concentration of the compound to be tested and the concentration of the control in the sample were semi-quantitatively determined by the liquid chromatography-tandem mass spectrometry (LC-MS/MS) method without a standard curve and quality control sample. […]

[3] = Metabolic stability in kidney S9, Cynomolgus macaques; assay type: in vitro ADME; conditions: cynomolgus macaque
Method: (§1) Test Example 8: Metabolic Stability of the Compounds of the Present Invention in Kidney S9 from Mice, Rats, Cynomolgus Macaques, and Humans
(§2) To investigate the metabolic stability of the compounds of the present invention in kidney S9 from mice, rats, Cynomolgus macaques, and humans.
(§3) Materials: Kidney S9 from CD-1 mice, SD rats, Cynomolgus macaques, and humans were purchased from BioIVT or XenoTech LLC and stored in a −80° C. refrigerator.
(§4) Experimental procedure: Eight 96-well plates, designated T0, T5, T15, T30, T45, T60, Blank, and NCF60, were prepared. The first six incubation plates corresponded to reaction time points of 0, 5, 15, 30, 45, and 60 minutes, respectively. No test sample or control compound was added to the Blank plate.
(§5) The T0, T5, T15, T30, T45, and T60 plates were added with a 2 μL working solution of the test sample (10 mM of a solution of the compound to be tested in DMSO, diluted to 100 μM with 100% acetonitrile) and 100 μL of a S9 working solution (kidney S9 protein concentration of 1.0 mg/mL), and the Blank plate was only added with the S9 working solution. The above incubation plates were then placed in a 37° C. water bath for pre-incubation for about 10 minutes.
(§6) At the end of the pre-incubation, 98 μL of an auxiliary enzyme working solution was added to each sample well except the TO plate to start the reaction. […]

[4] = Metabolic stability in kidney S9, humans; assay type: in vitro ADME; conditions: human
Method: as §1, §2, §3, §4, §5, §6

[5] = Stability in plasma, humans; assay type: in vitro ADME; conditions: human, 37° C.
Method: Test Example 9: Stability Analysis of the Compounds of the Present Invention in Plasma from Different Species
To test the stability of the compounds of the present invention in plasma from SD rats, Cynomolgus macaques, and humans.
The corresponding incubation plates, including T0, T10, T30, T60, T120, and T240 incubation plates, were added with a 2 μL working solution of the compound to be tested (100 μM). Three parallel wells were prepared for each sample. Then, 98 μL of blank plasma from SD rats, Cynomolgus macaques, and humans was added to the corresponding incubation plates to which the working solution had been added. All samples were incubated in a 37° C. water bath. […] At the end of each incubation time point, the corresponding incubation plate was removed, added with stop buffer, precipitated, and centrifuged for 20 minutes. Then, 150 μL of the supernatant was analyzed by the LC-MS/MS method. The concentration of the compound to be tested in the sample was semi-quantitatively determined by the liquid chromatography-tandem mass spectrometry (LC-MS/MS) method.

Compound: CC[C@H](C)[C@@H]([C@@H](CC(=O)N1CCC[C@H]1[C@H](OC)[C@@H](C)C(=O)N[C@H](C)[C@@H](O)c1ccccc1)OC)N(C)C(=O)[C@@H](NC(=O)[C@H](C(C)C)N(C)C(=O)OCc1ccc(NC(=O)[C@H](CCCNC(N)=O)NC(=O)[C@@H](NC(=O)CCCC(=O)NCCC(=O)N(C)CC(=O)N(C)CC(=O)N(C)CC(=O)N(C)CC(=O)N(C)CC(=O)N(C)CC(=O)N(C)CC(=O)N(C)CC(=O)N(C)CC(=O)N(C)CC(=O)N[C@H]2CCCCNC(=O)C[C@@H](C(=O)N[C@H]3CSCCC(=O)N4CN5CN(C4)C(=O)CCSC(C)(C)[C@H](NC(=O)[C@@H](CC(=O)O)NC(=O)[C@H](Cc4cccc6ccccc46)NC(=O)[C@@H]4CCCN4C3=O)C(=O)N[C@@H](CCSC)C(=O)N[C@@H](CCCCNC(=N)N)C(=O)N[C@@H](CC(=O)O)C(=O)N[C@@H](Cc3c[nH]c4ccccc34)C(=O)N[C@@H](CO)C(=O)N[C@@H]([C@@H](C)O)C(=O)N3CCC[C@H]3C(=O)N3C[C@H](O)C[C@H]3C(=O)N[C@@H](Cc3c[nH]c4ccccc34)C(=O)N[C@H](C(N)=O)CSCCC5=O)NC(=O)CN(C)C2=O)C(C)C)cc1)C(C)C [Acetate salt of PDC_2] (I: [Sar][Sar][Sar][Sar][Sar][Sar][Sar][Sar][Sar][Sar]K[Sar]DCP[1Nal][dD][Pen]M[hArg]DWSTP[Hyp]WC-NH2 / II: V[Cit][PABC][NMeV]V[Dil][Dolaproine]-X1; lactam I:11-I:13; linker I:14-I:18-I:28 via TATA; linker I:N-II:N via X2)
- AUC(0-t) [1]: 1 µM·h
- C0 [1]: 3.1 µM
- clearance [1]: 3.6 mL/min/kg
- half-life [1]: 1.5 h
- Vd ([1]; read-out: Vdss): 0.2 L/kg
- half-life at 1 μM [2]: > 3.61 h
- CLint scaled at 1 μM ([2]; read-out: CLint (liver)): < 17.8 mL/min/kg
- half-life at 1 μM [3]: > 2.42 h
- microsomal CLint at 1 μM [3]: < 9.6 µL/min/mg
- half-life at 1 μM [4]: > 2.42 h
- microsomal CLint at 1 μM [4]: < 9.6 µL/min/mg
- half-life at 2 μM [5]: > 9.63 h
